B1: Chimera 364-403: CYP102A1 heme domain with residues 364-403 from CYP102A2 (protein)
chain: TIKEMPQPKTFGELKNLPLLNTDKPVQALMKIADELGEIFKFEAPGRVTRYLSSQRLIKEACDESRFDKNLSQALKFVRDFAGDGLATSWTHEKNWKKAHNILLPSFSQQAMKGYHAMMVDIAVQLVQKWERLNADEHIEVPEDMTRLTLDTIGLCGFNYRFNSFYRDQPHPFITSMVRALDEAMNKLQRANPDDPAYDENKRQFQEDIKVMNDLVDKIIADRKASGEQSDDLLTHMLNGKDPETGEPLDDENIRYQIITFLIAGHETTSGLLSFALYFLVKNPHVLQKAAEEAARVLVDPVPSYKQVKQLKYVGMVLNEALRLWPTAPAFSLYAKEDTVLGGEYPLEKGDELMVLIPQLHRDRDAWGKDAEEFRPERFEHQDQVPHHAYKPFGNGQRACIGMQFALHEATLVLGMMLKHFDFEDHTNYELDIKETLTLKPEGFVVKAKSKKIPLGGIPSPST
modifications: Chimeric Cytochrome P450 heme group sequence from Bacillus megaterium and Bacillus subtilis
notes: CYP102A1 heme domain with residues 364-403 from CYP102A2
B2: Chimera 285-341: CYP102A1 heme domain with residues 285-341 from CYP102A2 (protein)
chain: TIKEMPQPKTFGELKNLPLLNTDKPVQALMKIADELGEIFKFEAPGRVTRYLSSQRLIKEACDESRFDKNLSQALKFVRDFAGDGLATSWTHEKNWKKAHNILLPSFSQQAMKGYHAMMVDIAVQLVQKWERLNADEHIEVPEDMTRLTLDTIGLCGFNYRFNSFYRDQPHPFITSMVRALDEAMNKLQRANPDDPAYDENKRQFQEDIKVMNDLVDKIIADRKASGEQSDDLLTHMLNGKDPETGEPLDDENIRYQIITFLIAGHETTSGLLSFALYFLVKNPDKLKKAYEEVDRVLTDAAPTYKQVLELTYIRMILNESLRLWPTAPAFSLYPKEDTVIGGEYPLEKGDELMVLIPQLHRDKTIWGDDVEEFRPERFENPSAIPQHAFKPFGNGQRACIGQQFALHEATLVLGMMLKHFDFEDHTNYELDIKETLTLKPEGFVVKAKSKKIPLGGIPSPST
modifications: Chimeric Cytochrome P450 heme group sequence from Bacillus megaterium and Bacillus subtilis
notes: CYP102A1 heme domain with residues 285-341 from CYP102A2
B3: CYP102A2: parent P450 heme domain from Bacillus subtilis, with the F88A mutation (protein, listed as Bacillus subtilis)
chain: KETSPIPQPKTFGPLGNLPLIDKDKPTLSLIKLAEEQGPIFQIHTPAGTTIVVSGHELVKEVCDEERFDKSIEGALEKVRAFSGDGLATSWTHEPNWRKAHNILMPTFSQRAMKDYHEKMVDIAVQLIQKWARLNPNEAVDVPGDMTRLTLDTIGLCGFNYRFNSYYRETPHPFINSMVRALDEAMHQMQRLDVQDKLMVRTKRQFRYDIQTMFSLVDSIIAERRANGDQDEKDLLARMLNVEDPETGEKLDDENIRFQIITFLIAGHETTSGLLSFATYFLLKHPDKLKKAYEEVDRVLTDAAPTYKQVLELTYIRMILNESLRLWPTAPAFSLYPKEDTVIGGKFPITTNDRISVLIPQLHRDRDAWGKDAEEFRPERFEHQDQVPHHAYKPFGNGQRACIGMQFALHEATLVLGMILKYFTLIDHENYELDIKQTLTLKPGDFHISVQSRHQEAIHADVQAAE
B4: Chimera 165-256M: mirror chimera of 165-256, sequences from opposite parents at every position (protein)
chain: KETSPIPQPKTFGPLGNLPLIDKDKPTLSLIKLAEEQGPIFQIHTPAGTTIVVSGHELVKEVCDEERFDKSIEGALEKVRAFSGDGLATSWTHEPNWRKAHNILMPTFSQRAMKDYHEKMVDIAVQLIQKWARLNPNEAVDVPGDMTRLTLDTIGLCGFNYRFNSFYRDQPHPFITSMVRALDEAMNKLQRANPDDPAYDENKRQFQEDIKVMNDLVDKIIADRKASGEQSDDLLTHMLNGKDPETGEPLDDENIRYQIITFLIAGHETTSGLLSFATYFLLKHPDKLKKAYEEVDRVLTDAAPTYKQVLELTYIRMILNESLRLWPTAPAFSLYPKEDTVIGGKFPITTNDRISVLIPQLHRDRDAWGKDAEEFRPERFEHQDQVPHHAYKPFGNGQRACIGMQFALHEATLVLGMILKYFTLIDHENYELDIKQTLTLKPGDFHISVQSRHQEAIHADVQAAE
modifications: Chimeric Cytochrome P450 heme group sequence from Bacillus megaterium and Bacillus subtilis
B5: Chimera 70-299: CYP102A1 heme domain with residues 70-299 from CYP102A2 (protein)
chain: TIKEMPQPKTFGELKNLPLLNTDKPVQALMKIADELGEIFKFEAPGRVTRYLSSQRLIKEACDESRFDKSIEGALEKVRAFSGDGLATSWTHEPNWRKAHNILMPTFSQRAMKDYHEKMVDIAVQLIQKWARLNPNEAVDVPGDMTRLTLDTIGLCGFNYRFNSYYRETPHPFINSMVRALDEAMHQMQRLDVQDKLMVRTKRQFRYDIQTMFSLVDSIIAERRANGDQDEKDLLARMLNVEDPETGEKLDDENIRFQIITFLIAGHETTSGLLSFATYFLLKHPDKLKKAYEEVDRVLTDPVPSYKQVKQLKYVGMVLNEALRLWPTAPAFSLYAKEDTVLGGEYPLEKGDELMVLIPQLHRDKTIWGDDVEEFRPERFENPSAIPQHAFKPFGNGQRACIGQQFALHEATLVLGMMLKHFDFEDHTNYELDIKETLTLKPEGFVVKAKSKKIPLGGIPSPST
modifications: Chimeric Cytochrome P450 heme group sequence from Bacillus megaterium and Bacillus subtilis
notes: CYP102A1 heme domain with residues 70-299 from CYP102A2
B6: Chimera 169-197M: mirror chimera of 169-197, sequences from opposite parents at every position (protein)
chain: KETSPIPQPKTFGPLGNLPLIDKDKPTLSLIKLAEEQGPIFQIHTPAGTTIVVSGHELVKEVCDEERFDKSIEGALEKVRAFSGDGLATSWTHEPNWRKAHNILMPTFSQRAMKDYHEKMVDIAVQLIQKWARLNPNEAVDVPGDMTRLTLDTIGLCGFNYRFNSYYREQPHPFITSMVRALDEAMNKLQRANPDDPAMVRTKRQFRYDIQTMFSLVDSIIAERRANGDQDEKDLLARMLNVEDPETGEKLDDENIRFQIITFLIAGHETTSGLLSFATYFLLKHPDKLKKAYEEVDRVLTDAAPTYKQVLELTYIRMILNESLRLWPTAPAFSLYPKEDTVIGGKFPITTNDRISVLIPQLHRDRDAWGKDAEEFRPERFEHQDQVPHHAYKPFGNGQRACIGMQFALHEATLVLGMILKYFTLIDHENYELDIKQTLTLKPGDFHISVQSRHQEAIHADVQAAE
modifications: Chimeric Cytochrome P450 heme group sequence from Bacillus megaterium and Bacillus subtilis

Columns and labels:
[1] = Peroxygenase substrate activity profile; format: biochemical; settings: 20 mM H2O2
Description: The chimeras were assayed for hydroxylation of p-nitrophenoxydodecanoic acid (12-pNCA), a fatty acid analog that is hydroxylated by CYP102A1 and CYP102A2 to yield p-nitrophenolate (Schwaneberg et al., Anal Biochem 269,359-366 (1999)). […] When hydroxylation rates for the parent CYP102 enzymes were monitored using the maximum soluble concentrations of these substrates, activity could only be detected on 2-phenoxy-ethanol.
Chimeras were assayed for peroxygenase activity on 12-pNCA, 2-phenoxy -ethanol and allyloxy-benzene. […] Rates are reported in nmol product/nmol P450/minute. […] Those with no activity include 65-256 and 277-365. Those with new activity include 165-256, 191-335, and 43-135.
This Example provides one method by which peroxygenase activity of a P450 enzyme may be characterized. First order rates for p-nitrophenolate accumulation were determined using 1 μM enzyme, 20 mM H2O2, 250 μM 12-pNCA and 0.5% dimethyl sulfoxide (DMSO) in 100 mM Tris-HCl (pH 8.2) at room temperature. Enzyme, substrate, buffer and DMSO were combined in a cuvette and zeroed at 410 nm. Reaction mixtures were incubated for 4 minutes and initiated by the addition of H2O2 to a final concentration of 20 mM. Initial rates were determined by monitoring the accumulation of p-nitrophenolate at 410 nm, and data from the first six seconds were used to determine initial rates. […] The extinction coefficient of p-nitrophenolate is 13,200 M^−1cm^−1 (Schwaneberg et al., Anal Biochem 269:359-366 (1999)).
Rates on 2-phenoxy-ethanol and allyloxy-benzene were determined using 2 μM enzyme, 20 mM H2O2, 1% DMSO, and 1% acetone in 100 mM N-[2-hydroxyethyl]piperazine-N′-[3-propanesulfonic acid] (Epps) (pH 8.2) at room temperature. Substrate concentrations for 2-phenoxy-ethanol (100 mM) and allyloxy benzene (50 mM) maintained saturation. Reactions were initiated by the addition of H2O2 and quenched at appropriate times using an equal volume of a solution containing 4M urea and 100 mM NaOH. 120 μl of 0.6% 4-AAP was added, followed by mixing and addition of 120 μl of 0.6% potassium persulfate. Color was allowed to develop for 20 minutes before absorbance was read at 500 nm. Rates were determined from the linear region of the time course. The major products were determined by GC/MS to be the hemiacetal, which decomposes to phenol. The extinction coefficient for the 4-AAP/phenol complex was determined to be 4,800 M^−1cm^−1. The results can be seen in FIG. 4.

[2] = Peroxidase activity with ABTS and H2O2; format: biochemical; settings: for Peroxidase activity: 10 mM ABTS, 20 mM H2O2, pH 5.0, activities <0.2 not detectable (N.D.); for peroxidase activity relative to parents: ABTS
Description: P450s can reduce peroxide to water (and a proton) using a mechanism similar to that of peroxidases, although the intrinsic rate for P450s is many orders of magnitude slower. (Mansuy, D., Comp Biochem Physiol C Pharmacol Toxicol Endocrinol 121, 5-14 (1998)). It has been proposed that the earliest P450 function may have been as a peroxidase. (Gotoh, O., Cytochrome P450, 2nd Edition, pp. 255-272 (1993)). To investigate how recombination affects P450 peroxidase activity, the colorimetric substrate 2,2′-azino-bis(3-ethylbenzothiazoline-6-sulfonate) (ABTS) was used to monitor this reaction (Childs et al., Biochem J 145,93-103 (1975)).
This example provides an example of how one can measure peroxidase activity. Initial rates of peroxidase activity were measured by monitoring the accumulation of the radical cation of ABTS at 414 nm (Childs et al., Biochem J., 145:93-103 (1975)). Enzyme (1 μM) was mixed with 10 mM ABTS in 200 mM phosphate buffer (pH 5.0) in a cuvette at room temperature. Samples were zeroed and reactions were initiated with the addition of H2O2 to a concentration of 20 mM. The absorbance at 414 nm was monitored for 5 minutes. Rates were determined from the steepest portion of the time course. An extinction coefficient of […] for ABTS was used.

[3] = Thermostability (loss of Soret band at increasing temperatures); format: physicochemical; settings: cell extracts heated 10 minutes
Description: Thermostability was assayed by monitoring the loss of the Soret band at increasing temperatures. […] However, thermostability may be important for retention of catalytic activity: the two chimeras that lacked peroxygenase activity were also the least thermostable.
Cell extracts were heated in a thermocycler for 10 minutes at various temperatures, followed by cooling to 4° C. Extracts were centrifuged for 5 minutes at 3500×g to remove any precipitates. Carbon monoxide reduced difference spectroscopy was used to quantitate the amount of P450. The reduction of the carbon monoxide peak was monitored over a range of temperatures.

Molecule	substrate activity profile relative to parents [1]	Peroxidase activity [2]	Tm [3] [°C]	peroxidase activity relative to parents [2]
B1	parent-like profiles	1 nmol product/nmol P450/min	51	
B2	parent-like profiles	2.1 nmol product/nmol P450/min	53	
B3		0.4 nmol product/nmol P450/min	44	low, but detectable peroxidase activity
B4	parent-like profiles	3.5 nmol product/nmol P450/min	50	did not show similarly enhanced levels
B5	altered activity	0.8 nmol product/nmol P450/min	42	
B6	altered activity	0.3 nmol product/nmol P450/min	43	did not show similarly enhanced levels
